T1: DMP1 expressed in 293T cells (Mus musculus) (UniProt Q8CE22)
T1 sequence: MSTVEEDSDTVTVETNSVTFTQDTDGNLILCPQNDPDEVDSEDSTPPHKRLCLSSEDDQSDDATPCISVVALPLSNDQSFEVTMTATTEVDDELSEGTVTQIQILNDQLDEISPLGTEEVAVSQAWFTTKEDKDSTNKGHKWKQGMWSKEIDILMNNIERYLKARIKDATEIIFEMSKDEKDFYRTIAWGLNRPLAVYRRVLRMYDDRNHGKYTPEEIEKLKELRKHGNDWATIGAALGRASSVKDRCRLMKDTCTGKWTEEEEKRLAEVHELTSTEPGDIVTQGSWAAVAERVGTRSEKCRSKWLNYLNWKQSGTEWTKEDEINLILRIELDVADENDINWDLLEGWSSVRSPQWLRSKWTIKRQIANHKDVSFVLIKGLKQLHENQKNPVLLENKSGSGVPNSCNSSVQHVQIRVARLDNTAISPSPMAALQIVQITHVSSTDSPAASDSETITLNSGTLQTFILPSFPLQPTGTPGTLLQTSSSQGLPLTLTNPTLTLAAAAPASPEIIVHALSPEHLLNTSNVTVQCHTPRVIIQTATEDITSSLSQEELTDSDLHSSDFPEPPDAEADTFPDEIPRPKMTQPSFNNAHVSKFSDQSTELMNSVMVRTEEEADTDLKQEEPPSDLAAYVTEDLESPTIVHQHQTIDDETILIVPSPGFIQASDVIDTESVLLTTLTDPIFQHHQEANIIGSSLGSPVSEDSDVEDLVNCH

T2: GST-DMP1 fusion protein (GST fused to residues 176-761 of DMP1)
T2 chain: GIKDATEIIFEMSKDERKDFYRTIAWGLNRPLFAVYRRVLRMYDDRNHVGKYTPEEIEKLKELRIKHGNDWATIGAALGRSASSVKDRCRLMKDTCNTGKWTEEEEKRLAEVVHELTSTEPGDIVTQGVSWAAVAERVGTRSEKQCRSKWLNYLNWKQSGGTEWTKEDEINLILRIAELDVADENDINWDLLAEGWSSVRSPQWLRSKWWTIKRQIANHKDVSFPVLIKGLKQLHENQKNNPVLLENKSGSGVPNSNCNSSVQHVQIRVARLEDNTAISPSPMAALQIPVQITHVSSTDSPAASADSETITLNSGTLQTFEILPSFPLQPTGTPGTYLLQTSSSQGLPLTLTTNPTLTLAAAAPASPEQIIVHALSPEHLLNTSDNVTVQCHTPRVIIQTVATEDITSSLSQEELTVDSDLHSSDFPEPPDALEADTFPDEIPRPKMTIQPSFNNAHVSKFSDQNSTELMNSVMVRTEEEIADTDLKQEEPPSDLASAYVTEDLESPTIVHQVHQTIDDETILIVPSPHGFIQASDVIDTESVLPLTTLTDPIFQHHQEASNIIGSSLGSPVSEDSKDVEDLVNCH

T3: DMP1 (cyclin D-binding myb-like protein), murine, full length (mouse, UniProt Q8CE22 1-761, multiple phosphorylated forms when made in Sf9 cells (sites not given))
T3 sequence: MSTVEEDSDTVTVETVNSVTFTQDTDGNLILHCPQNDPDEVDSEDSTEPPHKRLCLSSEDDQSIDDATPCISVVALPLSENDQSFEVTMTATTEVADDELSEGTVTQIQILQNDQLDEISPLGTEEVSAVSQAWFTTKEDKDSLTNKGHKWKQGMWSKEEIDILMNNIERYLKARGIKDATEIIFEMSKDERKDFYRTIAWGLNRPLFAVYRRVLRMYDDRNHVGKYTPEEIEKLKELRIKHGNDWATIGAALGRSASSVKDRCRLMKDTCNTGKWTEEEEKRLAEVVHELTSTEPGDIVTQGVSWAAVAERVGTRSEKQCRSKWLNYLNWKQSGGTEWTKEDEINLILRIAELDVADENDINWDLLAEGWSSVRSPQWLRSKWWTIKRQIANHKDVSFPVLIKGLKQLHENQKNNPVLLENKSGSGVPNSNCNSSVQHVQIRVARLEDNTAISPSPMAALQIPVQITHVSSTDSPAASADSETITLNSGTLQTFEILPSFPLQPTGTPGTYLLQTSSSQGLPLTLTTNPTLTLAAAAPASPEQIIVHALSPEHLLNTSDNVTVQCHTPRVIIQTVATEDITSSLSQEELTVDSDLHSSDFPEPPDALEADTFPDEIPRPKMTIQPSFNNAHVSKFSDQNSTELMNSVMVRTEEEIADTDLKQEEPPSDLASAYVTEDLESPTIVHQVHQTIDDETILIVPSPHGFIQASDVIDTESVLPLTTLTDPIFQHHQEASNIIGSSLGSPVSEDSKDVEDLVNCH

B1: cyclin D1-CDK4 complex (protein)
chain 1: MEHQLLCCEVETIRRAYPDTNLLNDRVLRAMLKTEETCAPSVSYFKCVQKEIVPSMRKIVATWMLEVCEEQKCEEEVFPLAMNYLDRFLSLEPLKKSRLQLLGATCMFVASKMKETIPLTAEKLCIYTDNSIRPEELLQMELLLVNKLKWNLAAMTPHDFIEHFLSKMPEADENKQTIRKHAQTFVALCATDVKFISNPPSMVAAGSVVAAMQGLNLGSPNNFLSCYRTTHFLSRVIKCDPDCLRACQEQIEALLESSLRQAQQNVDPKATEEEGEVEEEAGLACTPTDVRDVDI
chain 2: MAATRYEPVAEIGVGAYGTVYKARDPHSGHFVALKSVRVPNGGAAGGGLPVSTVREVALLRRLEAFEHPNVVRLMDVCATSRTDRDIKVTLVFEHIDQDLRTYLDKAPPPGLPVETIKDLMRQFLSGLDFLHANCIVHRDLKPENILVTSNGTVKLADFGLARIYSYQMALTPVVVTLWYRAPEVLLQSTYATPVDMWSVGCIFAEMFRRKPLFCGNSEADQLGKIFDLIGLPPEDDWPREVSLPRGAFAPRGPRPVQSVVPEMEESGAQLLLEMLTFNPHKRISAFRALQHSYLHKEESDAE
B2: cyclin D3-CDK4 complex (protein)
chain 1: MELLCCEGTRHAPRAGPDPRLLGDQRVLQSLLRLEERYVPRASYFQCVQKEIKPHMRKMLAYWMLEVCEEQRCEEDVFPLAMNYLDRYLSCVPTRKAQLQLLGTVCLLLASKLRETTPLTIEKLCIYTDQAVAPWQLREWEVLVLGKLKWDLAAVIAHDFLALILHRLSLPSDRQALVKKHAQTFLALCATDYTFAMYPPSMIATGSIGAAVLGLGACSMSADELTELLAGITGTEVDCLRACQEQIEAALRESLREAAQTAPSPVPKAPRGSSSQGPSQTSTPTDVTAIHL
chain 2: B1 chain 2
B3: cyclin D2-CDK4 complex (protein)
chain 1: MELLCCEVDPVRRAVPDRNLLEDRVLQNLLTIEERYLPQCSYFKCVQKDIQPYMRRMVATWMLEVCEEQKCEEEVFPLAMNYLDRFLAGVPTPKTHLQLLGAVCMFLASKLKETIPLTAEKLCIYTDNSVKPQELLEWELVVLGKLKWNLAAVTPHDFIEHILRKLPQQKEKLSLIRKHAQTFIALCATDFKFAMYPPSMIATGSVGAAICGLQQDDEVNTLTCDALTELLAKITHTDVDCLKACQEQIEALLLNSLQQFRQEQHNAGSKSVEDPDQATTPTDVRDVDL
chain 2: B1 chain 2
B4: cyclin D1 (other, mouse, UniProt P25322 1-295, looked up)
chain: B1 chain 1
B5: cyclin D3 (other, mouse, UniProt P30282 1-292, looked up)
chain: B2 chain 1
B6: cyclin D2 (other, mouse, UniProt P30280 1-289, looked up)
chain: B3 chain 1

Tests used:
cyclin D2 [1] = biological target: B6; test: coinfected Sf9 cells, coprecipitation
cyclin D3 [2] = biological target: B5; test: coinfected Sf9 cells, coprecipitation
cyclin D2 [3] = biological target: B6; test: GST pull-down of 35S-labelled in vitro translated cyclin on glutathione-Sepharose, gel autoradiography
Method: (§1) Because DMP1 interacted with cyclin D2 in yeast, the ability of a glutathione S-transferase (GST)-DMP1 fusion protein to bind D-type cyclins in vitro is examined. GST is fused to residues 176-761 of DMP1 (in lieu of GAL4 in the original cDNA clone), and the bacterially synthesized recombinant protein is incubated with [³⁵S]methionine-labeled D-type cyclins prepared by transcription and translation in vitro. As a positive control, GST-RB which can specifically bind D-type cyclins in this assay is used (15). Bound cyclins recovered on washed glutathione-Sepharose beads are analyzed by electrophoresis on denaturing gels. […] GST-DMP1 is less efficient than GST-RB in binding cyclins D2 and D3 (˜4-fold less binding), and under these conditions, an interaction with D1 is not detected (lanes 3, 7, 11). No labeled proteins bind to GST alone (lanes 4, 8, 12), and neither cyclin A nor cyclin E bind to GST-RB or to GST-DMP1. A cyclin D2 mutant disrupted in an amino-terminal Leu-X-Cys-X-Glu pentapeptide that is required for high efficiency GST-RB binding is not detectably compromised in its interaction with GST-DMP1 (negative data not shown); in agreement, DMP1 bears no homology to RB or to RB-related family members (p107 and p130).

cyclin D3 [4] = biological target: B5; test: as above
Method: as §1

[5] = biological target: T1, DMP1 expressed in 293T cells (Mus musculus); test: cell_activity; conditions: 6x BS1 luciferase reporter
[6] = biological target: T2, GST-DMP1 fusion protein (GST fused to …)
[7] = biological target: GST-RB fusion protein [GST: P08515]
Sequence of GST-RB fusion protein [GST: P08515] (P08515 whole entry, looked up, the tested form may be a part): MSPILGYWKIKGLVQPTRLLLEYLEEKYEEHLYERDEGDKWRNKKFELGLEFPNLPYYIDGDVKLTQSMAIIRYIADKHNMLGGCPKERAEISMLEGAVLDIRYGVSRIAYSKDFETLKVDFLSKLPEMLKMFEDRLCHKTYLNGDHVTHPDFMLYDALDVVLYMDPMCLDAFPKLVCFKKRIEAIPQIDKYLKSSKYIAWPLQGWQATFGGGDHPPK

[8] = biological target: T3, DMP1 (cyclin D-binding myb-like …); test: cell-based or functional assay

| Luciferase Activity (DMP1 transactivation of a DMP1-responsive reporter; DMP1 alone 8.4, no DMP1 1.0) [8] | Molecule | in vitro phosphorylation of the GST fusion protein by Sf9 lysates (32P) [6] | in vitro phosphorylation of the GST fusion protein by Sf9 lysates (32P) [7] | further results |
| --- | --- | --- | --- | --- |
|  | RB (retinoblastoma protein) coexpressed in Sf9 cells |  |  | binding ratio of cyclin to RB (cyclin D2 [1]): 1 ratio (1:1); binding ratio of cyclin to RB (cyclin D3 [2]): 1 ratio (1:1) |
|  | GST-RB fusion protein (from UniProt P08515 1-218) |  |  | percent of the total input protein bound (cyclin D2 [3]): 20%; percent of the total input protein bound (cyclin D3 [4]): 20% |
|  | AATTGACCCGGATGTAGGTACGC (double strand) [BS1] |  |  | activity (fold activation) [5]: 7 |
|  | B1 | lysates containing active cyclin D-CDK4 complexes phosphorylate both | Under equivalent conditions, GST-RB is always a preferred substrate |  |
|  | B2 | different preparations of cyclin D3-CDK4 are routinely more active than D2- or D1-containing holoenzymes in phosphorylating DMP1 | Under equivalent conditions, GST-RB is always a preferred substrate |  |
|  | B3 | lysates containing active cyclin D-CDK4 complexes phosphorylate both | Under equivalent conditions, GST-RB is always a preferred substrate |  |
| 1.5 relative to empty expression vector = 1.0 | B4 |  |  |  |
| 1.6 relative to empty expression vector = 1.0 | B5 |  |  |  |
| 1.6 relative to empty expression vector = 1.0 | B6 |  |  |  |
